From patent US20140178332A1 (published 2014) come the findings set out here.

Experiment [1] has as its target T1, recombinant purified human IL-12 p70 (human, UniProt P29459 23-219).
T1 construct: Disulfide-linked heterodimer of p35 and p40; also called hIL-12; Hu IL-12
T1 sequence 1: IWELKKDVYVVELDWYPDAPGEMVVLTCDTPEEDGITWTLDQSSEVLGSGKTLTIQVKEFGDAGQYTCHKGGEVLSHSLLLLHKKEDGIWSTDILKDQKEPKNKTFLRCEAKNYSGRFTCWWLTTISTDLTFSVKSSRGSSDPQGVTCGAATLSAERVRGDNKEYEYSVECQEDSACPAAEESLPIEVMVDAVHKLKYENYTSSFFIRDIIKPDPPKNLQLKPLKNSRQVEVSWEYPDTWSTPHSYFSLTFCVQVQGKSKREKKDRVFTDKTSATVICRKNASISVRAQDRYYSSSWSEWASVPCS
T1 sequence 2: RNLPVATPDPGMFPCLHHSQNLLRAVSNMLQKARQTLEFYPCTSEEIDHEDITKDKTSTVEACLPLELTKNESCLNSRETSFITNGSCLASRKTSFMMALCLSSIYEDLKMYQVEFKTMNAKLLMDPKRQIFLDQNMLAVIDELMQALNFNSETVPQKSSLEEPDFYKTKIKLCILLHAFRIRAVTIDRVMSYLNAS
In words: competition ELISA on coated human IL-12, competitor of 0.8 µg/ml biotinylated 8E1, Expt. 3. On the procedure:
MaxiSorp ELISA plates (Nalge Nunc International) were coated overnight at 4° C. with 100 μl/well of 1.0 μg/ml human IL-12 in 0.2 M sodium carbonate-bicarbonate buffer, pH 9.4, washed with Wash Buffer (PBS containing 0.1% Tween 20), and blocked for 1 hr at room temperature with 300 μl/well of SuperBlock Blocking Buffer in TBS (Pierce Chemical Company). […] As isotype controls, 100 μl/well of 100 μg/ml mouse IgG 1/κ (MuFd79) or humanized IgG1/κ (HuFd79) monoclonal antibodies in ELISA buffer was used. As a no-competitor control, 100 μl/well of ELISA Buffer was used. After incubating the plates for 1 hr at room temperature, and washing with Wash Buffer, bound antibodies were detected using 100 μl/well of 1 μg/ml HRP-conjugated streptavidin (Pierce Chemical Company) in ELISA buffer. After incubating for 1 hr at room temperature, and washing with Wash Buffer, color development was performed by adding 100 μl/well of ABTS Peroxidase Substrate/Peroxidase Solution B (KPL, Inc.). After incubating for 5 min at room temperature, color development was stopped by adding 50 μl/well of 2% oxalic acid. Absorbance was read at 415 nm.
(§1) The affinity of 8E1.4, 8E1.5 and 8E1.6 to human IL-12 was analyzed by competition ELISA as described above.

Experiment [2] has as its target T1, recombinant purified human IL-12 p70. As to the kind of experiment: competition ELISA on coated human IL-12, competitor of 0.8 µg/ml biotinylated 8E1, Expt. 2. The protocol:
MaxiSorp ELISA plates (Nalge Nunc International) were coated overnight at 4° C. with 100 μl/well of 1.0 μg/ml human IL-12 in 0.2 M sodium carbonate-bicarbonate buffer, pH 9.4, washed with Wash Buffer (PBS containing 0.1% Tween 20), and blocked for 1 hr at room temperature with 300 μl/well of SuperBlock Blocking Buffer in TBS (Pierce Chemical Company). After washing with Wash Buffer, a mixture of biotinylated 8E 1 ([…] final concentration) and competitor antibody (8E1 or 8E1.4 or 8E1.5 or 8E1.6) starting at 100 μg/ml final concentration and serially diluted 3-fold) in 100 μl/well of ELISA buffer was added in duplicate. As isotype controls, 100 μl/well of 100 μg/ml mouse IgG 1/κ (MuFd79) or humanized IgG1/κ (HuFd79) monoclonal antibodies in ELISA buffer was used. As a no-competitor control, 100 μl/well of ELISA Buffer was used. After incubating the plates for 1 hr at room temperature, and washing with Wash Buffer, bound antibodies were detected using 100 μl/well of 1 μg/ml HRP-conjugated streptavidin (Pierce Chemical Company) in ELISA buffer. After incubating for 1 hr at room temperature, and washing with Wash Buffer, color development was performed by adding 100 μl/well of ABTS Peroxidase Substrate/Peroxidase Solution B (KPL, Inc.). […] Absorbance was read at 415 nm.
as §1
In general terms: ELISA stands for enzyme-linked immunosorbent assay.

The target is the same in experiment [3]. In words: SPR (Biacore), mAb captured on anti-mouse IgG Fc, IL-12 p70 as analyte. On the procedure: The BIACORE assay (Biacore, Inc, Piscataway, N.J.) determines the affinity of antibodies with kinetic measurements of on-, off-rate constants. Binding of antibodies to recombinant purified human IL-12 p70 or recombinant purified human IL-12 p40 were determined by surface plasmon resonance-based measurements with a Biacore® 3000 instrument (Biacore® AB, Uppsala, Sweden) using running HBS-EP (10 mM HEPES [pH 7.4], 150 mM NaCl, 3 mM EDTA, and 0.005% surfactant P20) at 25° C. All chemicals were obtained from Biacore® AB (Uppsala, Sweden) or otherwise from a different source as described in the text. Approximately 5000 RU of goat anti-mouse IgG, (Fcγ), fragment specific polyclonal antibody (Pierce Biotechnology Inc, Rockford, Ill.) diluted in 10 mM sodium acetate (pH 4.5) was directly immobilized across a CM5 research grade biosensor chip using a standard amine coupling kit according to manufacturer's instructions and procedures at 25 μg/ml. Unreacted moieties on the biosensor surface were blocked with ethanolamine. Modified carboxymethyl dextran surface in flowcell 2 and 4 was used as a reaction surface. Unmodified carboxymethyl dextran without goat anti-mouse IgG in flow cell 1 and 3 was used as the reference surface. For kinetic analysis, rate equations derived from the 1:1 Langmuir binding model were fitted simultaneously to association and dissociation phases of all eight injections (using global fit analysis) with the use of Biaevaluation 4.0.1 software. Purified antibodies were diluted in HEPES-buffered saline for capture across goat anti-mouse IgG specific reaction surfaces. Mouse antibodies to be captured as a ligand (25 μg/ml) were injected over reaction matrices at a flow rate of 5 μl/min. The association and dissociation rate constants, kₒₙ (unit M⁻¹ s⁻¹) and koff (unit s⁻¹) were determined under a continuous flow rate of 25 μl/min. Rate constants were derived by making kinetic binding measurements at ten different antigen concentrations ranging from 10-200 nM. The equilibrium dissociation constant (unit M) of the reaction between mouse antibodies and recombinant purified human IL-12 p70 or recombinant purified human IL-12 p40 was then calculated from the kinetic rate constants by the following formula: KD=koff/kₒₙ. Binding is recorded as a function of time and kinetic rate constants are calculated.

B1: murine anti-human IL-12p40 monoclonal antibody 8E1 (antibody, V domains shown)
VH: EVKLVESGGGLVQPGGSRKLSCAASGFTFSDYGMVWVRQAPGKGLEWVASISSGSSNIYYADTVKGRFTISRDDPNNTLFLQMRSLRSEDTAMYYCARNPYWGQGTTLTVSS
VL: DIVMTQSQKFMSTSVGDRVSVTCKASQNVGTNVAWYQQKPGQSPKGLIYSASHRYSGVPDRFAGSGSGTDFTLTISNVQSEDLAEYFCQQYNSYPLTFGGGTKLELKR
notes: Murine mAb; also called biotinylated 8E1
Broadly, the IC50 is the point on the concentration scale where inhibition reaches its midpoint. Broadly, the Kd is a measure of binding affinity in units of concentration. For orientation: koff means a measure of how fast the partners let go of each other. By kon is commonly meant the rate constant with which the complex forms. As for B1, in experiment [1], the IC50 was 2.28 µg/mL. Further, in experiment [2], the half-maximal inhibitory concentration (IC50) turned out to be 2.78 µg/mL. Besides, in experiment [3], the dissociation constant Kd was found to be 0.074 nM, the koff is 5.1e-05 s⁻¹ and the kon was found to be 690000 M⁻¹ s⁻¹.
